US20030119169A1

Molecular target: truncated Mch3α (amino acids 199-303), p12 subunit (human) (UniProt P55210)
Assay: cell-based or functional assay

Sequence of truncated Mch3α (amino acids 199-303), p12 subunit (human) (P55210 199-303): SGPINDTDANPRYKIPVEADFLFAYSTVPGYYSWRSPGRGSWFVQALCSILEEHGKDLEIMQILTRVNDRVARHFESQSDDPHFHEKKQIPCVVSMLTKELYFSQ

apoptotic Sf9 cells on coexpression (percentage of cells): > 50%
Substance: CPP32-p20 subunit (from UniProt P42574 29-175) (enzyme)
